Results as given in patent US20240209106A1 (BEIGENE SWITZERLAND, published 2024).
Each block holds one binder with its values, some of them ahead of it.

Key:
[1] = molecular target: T1, full-length human CD137 (huCD137) (human, UniProt Q07011 24-255); test: flow cytometry ligand competition on Hut78/huCD137: BGA-4712 (VH-Fc) in the presence of serially diluted human CD137 ligand-mIgG2a, bound BGA-4712 detected with anti-hu IgG Fc; competitor: BGA-4712 [panel C]
T1 construct: On transduced Hut78 cells (Hut78/huCD137), transiently on HEK293 cells, or natively on PBMC/T cells; also called TNFRSF9; 4-1BB
T1 sequence (Q07011 24-255 limits assumed): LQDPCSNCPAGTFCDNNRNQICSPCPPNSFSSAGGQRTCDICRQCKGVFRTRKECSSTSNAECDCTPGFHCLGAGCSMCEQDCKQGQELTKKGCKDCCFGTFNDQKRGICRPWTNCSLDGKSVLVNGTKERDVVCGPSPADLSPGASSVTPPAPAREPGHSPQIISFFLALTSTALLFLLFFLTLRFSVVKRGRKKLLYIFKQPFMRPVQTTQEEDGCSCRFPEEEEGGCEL

human CD137 ECD-mIgG2a = human CD137 ECD-mIgG2a (human); test: competition ELISA on coated human CD137 ECD-mIgG2a: BGA-5623 (IgG4) in the presence of serially diluted human CD137 ligand ECD-mIgG2a, bound antibody detected with HRP anti-human IgG; competitor: BGA-5623 (IgG4)
Sequence of human CD137 ECD-mIgG2a (human) (chain, as listed by the source limits assumed): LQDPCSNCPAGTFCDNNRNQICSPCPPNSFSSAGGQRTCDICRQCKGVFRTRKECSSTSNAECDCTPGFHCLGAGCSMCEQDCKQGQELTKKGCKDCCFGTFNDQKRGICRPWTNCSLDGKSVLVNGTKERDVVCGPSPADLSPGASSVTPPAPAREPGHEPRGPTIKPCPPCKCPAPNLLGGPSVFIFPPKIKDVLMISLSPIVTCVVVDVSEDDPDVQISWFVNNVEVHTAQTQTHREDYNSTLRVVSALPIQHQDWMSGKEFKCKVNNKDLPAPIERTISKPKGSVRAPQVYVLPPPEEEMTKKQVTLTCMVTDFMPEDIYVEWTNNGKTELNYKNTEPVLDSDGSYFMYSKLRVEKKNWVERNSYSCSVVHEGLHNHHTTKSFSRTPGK

human CEA on cells [2] = molecular target: T2, human CEA on cells (human, UniProt P06731 35-685); test: flow cytometry on MKN45 cells [panel A]
T2 construct: whole, on cells; also called CT26/CEA; MKN45
T2 sequence (looked up): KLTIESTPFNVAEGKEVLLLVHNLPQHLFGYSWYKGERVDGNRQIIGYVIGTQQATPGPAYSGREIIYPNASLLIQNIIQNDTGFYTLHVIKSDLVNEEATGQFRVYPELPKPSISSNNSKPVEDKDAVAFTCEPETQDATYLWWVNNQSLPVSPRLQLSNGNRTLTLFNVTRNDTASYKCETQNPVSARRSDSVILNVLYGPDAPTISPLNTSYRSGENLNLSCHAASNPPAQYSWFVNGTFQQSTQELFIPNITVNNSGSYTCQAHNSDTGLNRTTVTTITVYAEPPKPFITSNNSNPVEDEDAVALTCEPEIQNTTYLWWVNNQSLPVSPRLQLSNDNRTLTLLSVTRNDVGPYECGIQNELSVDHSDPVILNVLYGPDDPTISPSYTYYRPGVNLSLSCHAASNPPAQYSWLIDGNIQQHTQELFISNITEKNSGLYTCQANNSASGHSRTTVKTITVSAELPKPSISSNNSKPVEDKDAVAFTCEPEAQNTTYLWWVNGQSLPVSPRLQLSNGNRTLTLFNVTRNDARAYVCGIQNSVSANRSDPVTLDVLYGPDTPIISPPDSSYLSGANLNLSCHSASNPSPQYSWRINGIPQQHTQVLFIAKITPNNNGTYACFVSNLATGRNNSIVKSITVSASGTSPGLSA

human CEA on cells [3] = molecular target: T2, human CEA on cells; test: flow cytometry on CT26/CEA cells [panel A]
[4] = molecular target: T1, full-length human CD137 (huCD137); test: flow cytometry on Hut78/huCD137 cells [panel B]
[5] = molecular target: T3, human CD137 ECD (AA 24-183) (human, UniProt Q07011 24-183); test: method and huCD137 construct not stated
T3 construct: also called huCD137

[6] = molecular target: T4, GPC3 (protein used for the TAA KD of Table 23) (UniProt P51654 25-559, limits assumed); test: method and GPC3 construct not stated (TAA KD)
T4 construct: also called Glypican 3
T4 sequence (P51654 25-559 limits assumed): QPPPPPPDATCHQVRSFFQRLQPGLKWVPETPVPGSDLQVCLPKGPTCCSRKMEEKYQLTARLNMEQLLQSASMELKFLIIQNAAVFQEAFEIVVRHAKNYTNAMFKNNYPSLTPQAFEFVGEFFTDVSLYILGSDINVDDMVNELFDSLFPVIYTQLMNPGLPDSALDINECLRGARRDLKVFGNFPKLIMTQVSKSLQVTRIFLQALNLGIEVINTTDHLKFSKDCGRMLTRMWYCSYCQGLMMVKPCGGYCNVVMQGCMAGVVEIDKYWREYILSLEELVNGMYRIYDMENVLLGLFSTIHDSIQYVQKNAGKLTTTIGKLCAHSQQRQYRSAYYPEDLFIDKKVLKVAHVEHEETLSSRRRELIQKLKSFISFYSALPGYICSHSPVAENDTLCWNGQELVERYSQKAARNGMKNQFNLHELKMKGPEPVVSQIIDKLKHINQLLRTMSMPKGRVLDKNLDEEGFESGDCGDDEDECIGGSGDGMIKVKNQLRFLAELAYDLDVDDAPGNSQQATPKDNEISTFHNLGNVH

[7] = molecular target: T5, Glypican 3 (GPC3) on cells (human, UniProt P51654 25-554); test: flow cytometry on HepG2 cells [panel C]
T5 construct: whole, on cells; also called HepG2; Huh7
T5 sequence (P51654 25-554 limits assumed): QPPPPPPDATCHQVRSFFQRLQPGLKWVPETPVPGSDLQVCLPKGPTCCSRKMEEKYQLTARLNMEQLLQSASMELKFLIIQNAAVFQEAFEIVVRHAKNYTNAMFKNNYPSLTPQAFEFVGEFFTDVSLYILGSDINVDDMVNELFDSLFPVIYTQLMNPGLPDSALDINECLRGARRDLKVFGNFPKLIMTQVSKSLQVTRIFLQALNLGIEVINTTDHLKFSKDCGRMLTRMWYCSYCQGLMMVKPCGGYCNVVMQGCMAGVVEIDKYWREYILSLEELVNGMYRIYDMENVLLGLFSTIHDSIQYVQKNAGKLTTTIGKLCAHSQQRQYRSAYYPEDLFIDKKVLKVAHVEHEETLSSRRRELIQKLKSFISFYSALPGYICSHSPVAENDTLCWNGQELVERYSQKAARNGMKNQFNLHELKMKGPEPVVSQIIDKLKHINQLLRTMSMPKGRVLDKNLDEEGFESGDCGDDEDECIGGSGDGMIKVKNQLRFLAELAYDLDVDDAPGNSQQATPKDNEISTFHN

- IC50 [1]: 0.42 µg/mL
- IC50 (read off the curve) (human CD137 ECD-mIgG2a): ~1 µg/mL
B1: human CD137 ligand-mIgG2a (Fc fusion)
chain: EPRGPTIKPCPPCKCPAPNLLGGPSVFIFPPKIKDVLMISLSPIVTCVVVDVSEDDPDVQISWFVNNVEVHTAQTQTHREDYNSTLRVVSALPIQHQDWMSGKEFKCKVNNKDLPAPIERTISKPKGSVRAPQVYVLPPPEEEMTKKQVTLTCMVTDFMPEDIYVEWTNNGKTELNYKNTEPVLDSDGSYFMYSKLRVEKKNWVERNSYSCSVVHEGLHNHHTTKSFSRTPGKGGGGSREGPELSPDDPAGLLDLRQGMFAQLVAQNVLLIDGPLSWYSDPGLAGVSLTGGLSYKEDTKELVVAKAGVYYVFFQLELRRVVAGEGSGSVSLALHLQPLRSAAGAAALALTVDLPPASSEARNSAFGFQGRLLHLSAGQRLGVHLHTEARARHAWQLTQGATVLGLFRVTPEIPAGLPSPRSE
notes: also called human CD137 ligand ECD-mIgG2a; huCD137 ligand

- EC50 (read off the curve) (human CEA on cells [2]): ~0.5 µg/mL
- EC50 (read off the curve) (human CEA on cells [3]): ~1 µg/mL
B2: anti-CEA Ab (IgG1) (antibody, V domains shown)
VH: QVQLVQSGAEVKKPGASVKVSCKASGYIFTSYYLHWVRQAPGQGLEWIGYINPQTGKTSYAQKFQGRVTMTRDTSTSTVYMELSSLRSEDTAVYYCAREYGNYNYPLDYWGQGTLVTVSS
VL: DIQMTQSPSSLSASVGDRVTITCRASENQYGYLAWYQQKPGKVPKLLIYNYKNLVEGVPSRFSGSGSGTDFTLTISSLQPEDVATYYCQHHLGTPYTFGQGTKVEIKR
notes: also called anti-CEA antibody
- binding result [4]: no binding (tested: just above 10^2 ug/ml)

- Kd [5]: 182 nM
- Kd [6]: 1.47 nM
- EC50 (read off the curve) [7]: ~0.7 µg/mL
B3: BE-830 (GPC3 × CD137) (bispecific antibody, human IgG1, kappa)
heavy: not shown
light: DVVMTQSPLSLPVTPGEPASISCRSSQSLVHSNRNTYLHWYLQKPGQSPQLLIYKVSNRFSGVPDRFSGSGSGTDFTLKISRVEAEDVGVYYCSQNTHVPPTFGQGTKLEIKRTVAAPSVFIFPPSDEQLKSGTASVVCLLNNFYPREAKVQWKVDNALQSGNSQESVTEQDSKDSTYSLSSTLTLSKADYEKHKVYACEVTHQGLSSPVTKSFNRGEC
notes: also called CD137×GPC3; GPC3×CD137 multispecific antibody BE-830
